From patent US20090031441A1 (NATIONAL UNIVERSITY CORPORATION NAGOYA UNIVERSITY, published 2009)

T1: RGL2 (Arabidopsis DELLA protein), yeast two-hybrid prey in pGADT7 AD vector (Arabidopsis, UniProt Q8GXW1 1-547)
T1 construct: also called AtDELLA
T1 sequence (looked up): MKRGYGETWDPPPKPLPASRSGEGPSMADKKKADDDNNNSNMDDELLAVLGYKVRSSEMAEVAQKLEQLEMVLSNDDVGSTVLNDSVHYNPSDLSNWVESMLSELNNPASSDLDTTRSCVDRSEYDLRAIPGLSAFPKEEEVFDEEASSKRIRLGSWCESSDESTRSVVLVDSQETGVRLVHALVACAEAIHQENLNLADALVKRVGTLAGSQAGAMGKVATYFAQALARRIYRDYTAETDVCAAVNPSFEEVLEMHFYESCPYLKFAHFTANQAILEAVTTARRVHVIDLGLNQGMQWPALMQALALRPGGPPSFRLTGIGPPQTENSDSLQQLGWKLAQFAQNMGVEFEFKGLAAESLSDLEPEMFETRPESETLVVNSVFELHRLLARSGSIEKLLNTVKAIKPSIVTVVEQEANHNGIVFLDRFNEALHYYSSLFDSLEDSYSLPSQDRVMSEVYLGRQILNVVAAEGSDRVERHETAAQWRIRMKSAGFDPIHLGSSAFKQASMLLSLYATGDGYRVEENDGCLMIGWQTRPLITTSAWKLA

T2: GAI (Arabidopsis DELLA protein), yeast two-hybrid prey in pGADT7 AD vector (Arabidopsis, UniProt Q9LQT8 1-533)
T2 construct: also called AtDELLA
T2 sequence (looked up): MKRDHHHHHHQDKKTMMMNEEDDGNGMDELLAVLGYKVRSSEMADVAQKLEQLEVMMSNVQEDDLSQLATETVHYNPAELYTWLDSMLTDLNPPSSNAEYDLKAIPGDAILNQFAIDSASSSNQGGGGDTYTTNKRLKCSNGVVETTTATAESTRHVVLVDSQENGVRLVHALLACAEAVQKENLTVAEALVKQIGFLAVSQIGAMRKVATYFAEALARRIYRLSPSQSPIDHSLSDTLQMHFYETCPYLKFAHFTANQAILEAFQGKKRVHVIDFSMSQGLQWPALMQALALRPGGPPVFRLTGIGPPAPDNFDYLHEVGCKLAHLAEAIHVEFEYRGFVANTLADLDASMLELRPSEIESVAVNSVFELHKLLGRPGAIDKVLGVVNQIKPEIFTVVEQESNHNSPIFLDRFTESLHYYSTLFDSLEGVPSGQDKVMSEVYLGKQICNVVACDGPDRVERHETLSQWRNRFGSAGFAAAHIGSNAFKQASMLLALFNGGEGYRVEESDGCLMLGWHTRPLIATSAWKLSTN


Key:
[1] = biological target: T1, RGL2 (Arabidopsis DELLA protein), yeast …; experiment: yeast two-hybrid system
Protocol: (§1) Arabidopsis has five DELLA proteins (RGA, GAI, RGL1, RGL2, and RGL3; collectively designated AtDELLA; Fleet, C. M., and Sun, T.-P. (2005) Curr. Opin. Plant Biol., 8, 77-85; Dill, A., and Sun, T. (2001) Genetics, 159, 777-785); therefore, there are 15 possible combinations of GID1/DELLA proteins. To verify the positive interactions between AtGID1-AtDELLA, two experiments were conducted using the yeast two hybrid (Y2H) system. In the first experiment (Assay A), a viable colony assay using a defined medium in which only positive clones would survive was carried out. In the second experiment (Assay B), β-galactosidase activity was measured, as reporter gene product of AtGID1-AtDELLA interactions.
BD Matchmaker Two-hybrid System 3 (Clontech, Palo Alto, Calif., USA; now part of Takara Bio) was used in the Y2H experiments. After confirming the PCR products of the AtGID1 genes by sequencing, PCR products were cloned into pGBKT7 DNA-BD shuttle vector to construct bait plasmids. Likewise, the entire coding region of each AtDELLA gene (GAI including EcoRI and XhoI sites; RGA including BamHI and XhoI sites; RGL1 including SmaI and SacI sites; RGL2 including SmaI and ClaI sites; RGL3 including SmaI and XhoI sites on the ends) was cloned into pGADT7 AD vector. The S. cerevisiae AH109 (MATa) strain or Y187 (MATα) strain was used, and DNA-BD and AD vector cassettes were used as negative controls. The details of the method used for the yeast assay are as described in the manufacturer's instructions (Yeast Protocols Handbook #PT3024-1; http://www.clontech.com/). Experiments were carried out four times independently. Similar results were obtained each time.

[2] = biological target: T2, GAI (Arabidopsis DELLA protein), yeast …; experiment: yeast two-hybrid, AtGID1 bait and AtDELLA prey, 10^-5 M GA4 in medium; colony growth (Assay A) and beta-galactosidase activity (Assay B)
Protocol: Panel A) depicts AtGID1-AtDELLA interaction in the presence of GA in two types of yeast hybrid (Y2H) assays. Each AtGID1 was used as a bait while AtDELLA was a prey. GA₄ (10⁻⁵ M) was added to the medium. The bars indicates β-galactosidase activity when o-nitrophenol-β-D-galactopyranoside was used as a substrate (Assay B). The growth of each transformant in the defined medium for 2 days (Assay A) is shown beneath of each bar graph. The experiment was carried out in quadruplicate. The SD value shown in the figure was determined from three measurements. Panel B) depicts the dose response in AtGID1-RGA interaction in Assay B of Y2H. GA₄ (10⁻⁵ to 10⁻⁹ M) was added to the medium. The experiment was conducted in duplicates. The SD value shown in the figure was determined from three measurements. Panel C) depicts the results of an evaluation of the in vitro GA-binding potency of AtGID1 using AtDELLA. Left panel, 15 minutes after mixing AtGID1c (C), tritiated GA, with an excess amount of non-labeled GA (+) or without non-labeled GA (−). GAI (G) or RGA (R) was added, and then the GA-binding activity in each reaction mixture was measured according to the standard method. Recombinant protein originating from the vector (v) was used as a negative control. The experiment was carried out in duplicates. The SD value was determined from three measurements. Right panel, a profile of Western blotting for recombinant AtDELLA using an antibody to His tag. G, GAI; R, RGA; v, vector; M, molecular weight marker.
as §1, with “In the first experiment (Assay A), a viable colony assay using a defined medium in which only positive clones would survive was carried out.” left out, “interactions. […]” for “interactions.”

Row | binding result [1] | binding result [2] | Binder
1 | binds |  | AtGID1b (At3g63010), yeast two-hybrid bait in pGBKT7 DNA-BD vector (receptor, not shown: small tags and cut ends, Bait fusion for the Y2H assays; also called Arabidopsis GID1) MAGGNEVNLNECKRIVPLNTWVLISNFKLAYKVLRRPDGSFNRDLAEFLDRKVPANSFPLDGVFSFDHVDSTTNLLTRIYQPASLLHQTRHGTLELTKPLSTTEIVPVLIFFHGGSFTHSSANSAIYDTFCRRLVTICGVVVVSVDYRRSPEHRYPCAYDDGWNALNWVKSRVWLQSGKDSNVYVYLAGDSSGGNIAHNVAVRATNEGVKVLGNILLHPMFGGQERTQSEKTLDGKYFVTIQDRDWYWRAYLPEGEDRDHPACNPFGPRGQSLKGVNFPKSLVVVAGLDLVQDWQLAYVDGLKKTGLEVNLLYLKQATIGFYFLPNNDHFHCLMEELNKFVHSIEDSQSKSSPVLLTP
2 | binds | binds | AtGID1a (At3g05120), yeast two-hybrid bait in pGBKT7 DNA-BD vector (receptor, not shown: small tags and cut ends, Bait fusion for the Y2H assays (BD Matchmaker Two-hybrid System 3); also called Arabidopsis GID1) MAASDEVNLIESRTVVPLNTWVLISNFKVAYNILRRPDGTFNRHLAEYLDRKVTANANPVDGVFSFDVLIDRRINLLSRVYRPAYADQEQPPSILDLEKPVDGDIVPVILFFHGGSFAHSSANSAIYDTLCRRLVGLCKCVVVSVNYRRAPENPYPCAYDDGWIALNWVNSRSWLKSKKDSKVHIFLAGDSSGGNIAHNVALRAGESGIDVLGNILLNPMFGGNERTESEKSLDGKYFVTVRDRDWYWKAFLPEGEDREHPACNPFSPRGKSLEGVSFPKSLVVVAGLDLIRDWQLAYAEGLKKAGQEVKLMHLEKATVGFYLLPNNNHFHNVMDEISAFVNAEC
